Experimental data as given in the supplement of paper PMC9170038.

Tests used:
MS2 coat protein [1] = experiment: apparent KD of MS2 coat protein, switch ON state; designed switch direction (-1 OFF switch, 1 ON switch): 1; higher = weaker reporter binding; settings: FMN input: 0 or 200 uM; Eterna round: R93 (includes R88 designs)
Procedure, shortened: (§1)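 With or without constant ligand, designed RNA switches in 100 mM Tris-HCl pH 7.5, 80 mM KCl and 4 mM MgCl2 were titrated with SNAP-549-labelled MS2 coat protein. Concentrations went up in twofold steps from 0.7 or 1.5 nM to 3 µM. The switches had been transcribed on-chip from Illumina sequencing clusters, and apparent KD is the per-design median of normalised cluster binding-curve fits.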

MS2 coat protein [2] = experiment: apparent KD of MS2 coat protein, switch OFF state (with FMN for OFF switches, without FMN for ON switches); designed switch direction (-1 OFF switch, 1 ON switch): 1; higher = weaker reporter binding; settings: FMN input: 0 or 200 uM; Eterna round: R93 (includes R88 designs)
Procedure, shortened: as §1

Sequence | apparent KD of MS2 coat protein (MS2 coat protein [1]) | apparent KD of MS2 coat protein (MS2 coat protein [2])
AGGAAACAUGAGGAUCACCCAUGUAUAAAAAAUACAGGAUAUGGAAACACGAAAGUGAAACCAGAAGGGUAAAAAA [77%, Mat - Mod of Eli, 32] | 15.9 nM | 39.9 nM
AGAAUAAAAAGAGAGGAUAUCCAUAAGAAAACAUGAGGAUCACCCAUGUGAAAGAUAAUAAAAUGGGAGAAGGCUCAAAAUAAGA [Topaz 45] | 21 nM | 20.2 nM
GAAAAACAUGAGGAUCACCCAUGUAAGAUAAACACAGGAUAUGCGAAAAUAAACAAAGAAGCAGAAGGGUGAAGAA [Mat - Same State 1 - Tesla mod - 72] | 23 nM | 80.3 nM
ACAAAUAAAAGAGAGGAUAUCCAAAAGAAAACAUGAGGAUCACCCAUGUGAAAGAAAAUAAAAUGGGAGAAGGCUCAGAAUAAUA [Topaz 30] | 16.4 nM | 83.2 nM
AUAGACAUAGUUCAGGAUAUGGUAAUAGUCACAUGAGGAUCACCCAUGUGCAUUUAUAUGCGCGAUCAGAAGGGAGGUAGAUAUA [Mat - Same state - Malcolm Mod - D117] | 17.7 nM | 16.3 nM
AAAUAAAAGACUAAGGAUAUGUCGCAUGACACAUGAGGAUCACCCAUGUGGUAACACAGAGGGUGGCAGAAGGUAGUCAAAAAAC [Mod 1 of Pariah 6 (Round1) by Hyphema] | 45.8 nM | 446 nM
CGCUCACAUGAGGAUCACCCAUGUCCUAGGAGGUCAGGAUAUAGCUCGGAUGCGUUGAGGCUAGAAGGGACAGGUG [JR_SS001_Sub606] | 78.6 nM | 59.5 nM
UUACGUACGUAUGAGGAUAUCCAUAAUAAGACAUGAGGAUCACCCAUGUAAACAAAACAAUAAUGGGAGAAGGCAUACGUACGAA [Mat - Same state - Malcolm Mod - D135] | 23.2 nM | 47.3 nM
AGGAAACAUGAGGAUCACCCAUGUAAAAAUAUGGGAGGAUAUACAAACAAGAAAGUCAGAGUAGAAGGCCUAAAAG [Garnet 7] | 73.7 nM | 145 nM
GGAGCCGACACUGAGGAUAUUCAUAUUAAAACAUGAGGAUCACCCAUGUAGGCCAGAAGGCCUUGGGAGAAGGCAGGCCGGCUCG [Inxebi] | 19.3 nM | 256 nM
AAAAAAUAAAAAAAGGAUAUAAUGCUACAGACAUGAGGAUCACCCAUGUAGGUAGCAUUAAUAAAAAAGAAGGAAAAAUAAAAAA [SS2: MS2 32] | 9.09 nM | 15.3 nM
UGGAGACAUGAGGAUCACCCAUGUGAGAAGAGGCGAGGAUAUCGAAAGAAAGAAGAGAAACGAGAAGGCGCGAGAG [salish99-SS1-041] | 42.7 nM | 51.2 nM
AAAUAACAUGAGGAUCACCCAUGUCAAAUAAAUCGAGGAUAUGGGCCCGGGUUCCGGAAGCCAGAAGGCGAAAAGA [Diareslera] | 24.9 nM | 55.1 nM
AUAAUAUUAAGCAAGGAUAUACUAAAGUAAACAUGAGGAUCACCCAUGUGAAAAAAAAAACUCAUGUAGAAGGUGCAUAAAUAAA [moonwalk 11] | 23.9 nM | 50 nM
AAGAUACAUGAGGAUCACCCAUGUUUUGGUGGGUCAGGAUAUAAAAAGAAUGAGAGAAAGUUAGAAGGGACAAAGA [JR_SS001_Sub005] | 201 nM | 309 nM
AACAAACAUGAGGAUCACCCAUGUCAAACAUACCAAGGAUAUGGGAGACGAGACUCGUCACCAGAAGGUGGAAAUU [Maatce] | 106 nM | 123 nM
GAAAAACAUGAGGAUCACCCAUGUGGAAAUAUGGAAGGAUAUACAAAGACGGAAGUCAAAGUAGAAGGUCUAAAAG [Mat - Same State 1 - Eli mod - D19] | 23.6 nM | 29.4 nM
CGUGAACAUGAGGAUCACCCAUGUAGCGGGAGACAAGGAUAUGGGAGGCGAAAUCGCGGAUCAGAAGGUGUAAGCG [Zace] | 16.4 nM | 16.5 nM
